According to publication PMC5173320:

Target: GFP-FLN90 (short 90 kDa isoform of Drosophila filamin/cheerio with an N terminus EGFP tag) (Drosophila)
Experiment: proximity ligation; in situ PLA (Duolink) in HEK293T cells co-expressing V5-dPak with GFP-FLN90 or GFP alone; fixed with 4% paraformaldehyde about 40 hr after transfection; mouse anti-V5 and rabbit anti-GFP; GFP+ cells scored as PLA+ if they had more than three puncta

GFP-FLN90 (short 90 kDa isoform of Drosophila filamin/cheerio with an N terminus EGFP tag) (Drosophila), sequence (Q9VEN1 whole entry, canonical isoform): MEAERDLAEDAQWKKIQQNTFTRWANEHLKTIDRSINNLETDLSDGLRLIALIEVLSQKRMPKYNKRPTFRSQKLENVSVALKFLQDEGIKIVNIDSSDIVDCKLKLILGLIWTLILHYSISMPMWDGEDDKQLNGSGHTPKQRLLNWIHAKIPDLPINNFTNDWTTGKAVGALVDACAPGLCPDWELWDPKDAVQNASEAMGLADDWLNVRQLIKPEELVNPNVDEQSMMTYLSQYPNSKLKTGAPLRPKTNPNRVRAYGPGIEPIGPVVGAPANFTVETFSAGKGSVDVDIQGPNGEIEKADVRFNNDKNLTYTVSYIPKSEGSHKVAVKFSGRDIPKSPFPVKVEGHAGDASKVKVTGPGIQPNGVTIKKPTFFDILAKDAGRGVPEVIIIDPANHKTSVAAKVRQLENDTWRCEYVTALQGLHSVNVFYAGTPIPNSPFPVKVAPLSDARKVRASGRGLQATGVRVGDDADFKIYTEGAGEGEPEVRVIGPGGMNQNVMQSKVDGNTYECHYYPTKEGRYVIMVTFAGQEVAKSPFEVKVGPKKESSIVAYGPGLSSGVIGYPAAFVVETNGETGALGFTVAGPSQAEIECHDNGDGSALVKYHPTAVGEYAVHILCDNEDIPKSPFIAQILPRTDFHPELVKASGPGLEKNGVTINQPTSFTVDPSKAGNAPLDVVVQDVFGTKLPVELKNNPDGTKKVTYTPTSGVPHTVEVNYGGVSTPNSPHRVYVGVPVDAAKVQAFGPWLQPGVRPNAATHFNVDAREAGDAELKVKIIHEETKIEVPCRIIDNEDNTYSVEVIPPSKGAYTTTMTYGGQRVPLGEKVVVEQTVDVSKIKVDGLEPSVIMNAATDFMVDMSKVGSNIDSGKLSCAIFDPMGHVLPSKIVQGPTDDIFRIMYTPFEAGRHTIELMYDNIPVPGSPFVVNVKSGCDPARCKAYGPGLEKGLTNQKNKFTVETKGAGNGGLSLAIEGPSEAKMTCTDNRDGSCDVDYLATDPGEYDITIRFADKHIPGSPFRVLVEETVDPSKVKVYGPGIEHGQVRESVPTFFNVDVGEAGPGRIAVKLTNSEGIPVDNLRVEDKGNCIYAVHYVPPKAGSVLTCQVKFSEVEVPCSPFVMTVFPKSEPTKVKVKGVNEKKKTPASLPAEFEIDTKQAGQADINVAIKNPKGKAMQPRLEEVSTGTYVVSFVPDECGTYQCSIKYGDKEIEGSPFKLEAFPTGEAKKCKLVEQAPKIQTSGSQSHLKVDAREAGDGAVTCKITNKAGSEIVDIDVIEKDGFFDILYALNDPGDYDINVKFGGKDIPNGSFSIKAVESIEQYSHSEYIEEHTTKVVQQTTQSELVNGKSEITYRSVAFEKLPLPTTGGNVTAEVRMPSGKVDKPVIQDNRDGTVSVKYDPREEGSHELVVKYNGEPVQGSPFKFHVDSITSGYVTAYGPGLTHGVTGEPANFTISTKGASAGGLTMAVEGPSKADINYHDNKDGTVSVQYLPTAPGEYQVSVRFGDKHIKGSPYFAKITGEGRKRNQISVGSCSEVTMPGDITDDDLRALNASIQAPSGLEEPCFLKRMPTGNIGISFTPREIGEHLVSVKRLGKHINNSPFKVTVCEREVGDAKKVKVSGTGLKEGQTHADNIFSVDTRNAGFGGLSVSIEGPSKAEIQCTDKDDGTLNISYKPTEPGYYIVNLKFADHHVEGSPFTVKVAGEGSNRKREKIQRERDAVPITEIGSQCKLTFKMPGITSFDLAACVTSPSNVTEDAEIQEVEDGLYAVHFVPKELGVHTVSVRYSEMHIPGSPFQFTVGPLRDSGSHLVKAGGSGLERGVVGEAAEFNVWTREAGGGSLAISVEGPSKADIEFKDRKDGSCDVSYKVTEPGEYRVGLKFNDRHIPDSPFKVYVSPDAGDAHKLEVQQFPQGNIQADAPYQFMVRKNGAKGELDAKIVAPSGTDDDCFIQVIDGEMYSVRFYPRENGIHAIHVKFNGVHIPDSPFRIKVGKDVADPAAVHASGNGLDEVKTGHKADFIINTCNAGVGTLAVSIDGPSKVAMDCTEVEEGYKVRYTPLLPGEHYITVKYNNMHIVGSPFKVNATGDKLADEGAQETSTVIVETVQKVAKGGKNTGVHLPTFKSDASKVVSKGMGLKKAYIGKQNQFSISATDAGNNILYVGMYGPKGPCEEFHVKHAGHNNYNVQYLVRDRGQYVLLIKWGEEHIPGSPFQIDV

PLA-positive cells among GFP+ cells (of 973 GFP+ cells): 484
Substance: V5-dPak (Drosophila p21-activated kinase Pak with a V5 tag) (from UniProt Q9VI13 1-704) (enzyme)
